# Assay: yeast display, Sf9 membrane polyspecificity reagent, FACS + sequencing; frameworks hold sequencing errors
# Summary of the method: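 Nanobodies from a synthetic yeast display library (Saccharomyces cerevisiae BJ5465), induced 36–48 hours with galactose, were stained 1 hour at 4 °C with 10% biotinylated, detergent-solubilized Sf9 membrane reagent, enriched on streptavidin microbeads, then FACS-sorted. Anti-HA (expression) and streptavidin (reagent binding) fluorescence set low and high (top ~1%) gates. Polyreactivity labels come from the gate of origin. Genes were colony-PCR amplified, MiSeq 2 × 250 sequenced and filtered by CDR length.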
row,Sequence,polyreactivity (PSR sort gate)
1,QVQLVESGGGLVQAGGSLRLSCAASGRTFDYYAMGWYRQAPGKERELVAAIRLISGNRYYADSVKGRFTISRDNAKNTVYLQMNSLKPEDTAVYYCAARSDGVPSLYGGMDYWRQGTQVTVSS,low polyreactivity
2,QVQLVESGGGLVQAGGSLRLSCAASGRTFEDYTMGWYRQAPGKERELVAAITGGGSTNYADSVKGRFTISRDNAKNTVYLQMNSLKPEDTAVYYCAARRKGGHISYGYDYWGQGTQVTVSS,high polyreactivity
3,QVQLVESGGGLVQAGGSLRLSCAASGRTFEGNAMGWYRQAPGKERELVAAISWSGGSTYYANSVKGRFTISRDNAKNTVYLQMNSLKPEDTAVYYCAAVPVHTGSLYWGFTTGYDYWGQGTQVTVSS,low polyreactivity
4,QVQLVESGGGLVQAGGSLRLSCAASGRTFEQNAMGWYRQAPGKEREFVAAITASSGRTSYADSVKGRFTISRDNAKNTVYLQMNSLKPEDTAVYDCAADLADRERRHNYWGQGTQVTVSS,low polyreactivity
5,QVQLVESGGGLVQAGGSLRLSCAASGRTFEQNAMGWYRQAPGKERELVASITSVGSTDYADSVKGRFTISRDNAKNTVYLQMNSLKPEDTAVYYCAKTLCSQNYDFDYWGQGTQVTVSS,low polyreactivity
6,QVQLVESGGGLVQAGGSLRLSCAASGRTFERYAMGWYRQAPGKERELVAAISWSGSSTYYADSVKARFTISRDISKNTVYLHMNSLKPEDTAVYYCNALFQQRYGYWGQGTQVTVSS,low polyreactivity
7,QVQLVESGGGLVQAGGSLRLSCAASGRTFERYAMGWYRQAPGKERELVADISSSGSTNYADSVKGRFTISRDNAKNTVYLQMNRLNPEDTAVYYCAADYWRHWYWDVVEFDYWGQGTQVTVSS,high polyreactivity
8,QVQLVESGGGLVQAGGSLRLSCAASGRTFETNAMGWYRQAPGKERELVAAISRSGGSTRYADSVKGRFTISRDNAKNTVYLQMNRLKPEDTAVYYCAVRVGLGGGYWGQGTQVTVSS,high polyreactivity
9,QVQLVESGGGLVQAGGSLRLSCAASGRTFETYAMGWYRQAPGKERELVATIRSSGSTNYADSVKGRFTISRDNAKNTVYLQMNSLKPEDTAVYYCAAVYVYRTSYLISLYDYGYWGQGTQVTVSS,high polyreactivity
10,QVQLVESGGGLVQAGGSLRLSCAASGRTFEWYAMGWYRPAPGKERELVAVISSGGSTNYADSVKGRFTISRDNAKNTVYLQMNSLIPEDTAVYYCAVLQARDGYWLYLYDYWGQGTQVTVSS,low polyreactivity
11,QVQLVESGGGLVQAGGSLRLSCAASGRTFEYNAMGWYRQAPGKERELVAAISSSGGSTRYADSVKGRFTISRDNAKNTVYLQMNSLKPEDTAVYYCAKRGYTSSRRWIYDYRGQGTQVTVSS,high polyreactivity
12,QVQLVESGGGLVQAGGSLRLSCAASGRTFFGYAMGWYRQAPGKERELVAAISSRGDSTYYADSVKGRFTISRDNAKNTVYLQMNSLKPEDTAVYYCNTYSTVYSYDYDYWGQGTQVTVSS,low polyreactivity
13,QVQLVESGGGLVQAGGSLRLSCAASGRTFFGYAMGWYRQAPGKERELVAAITSSGGRTYYADSVKGRFTISRDNAKNTVYLQMNSLKPEDTAVYYCNTVLSFRSVNIYRGRGDYWGQGSQVTVSS,high polyreactivity
14,QVQLVESGGGLVQAGGSLRLSCAASGRTFFIYAMGWYRQAPGKERELVARITGGGRTYYADSVKGRFTISRDNAKNTVYLQMNSLKPEDTAVYYCAKRSYVTYPPYDYWGQGSQVTVSS,high polyreactivity
15,QVQLVESGGGLVQAGGSLRLSCAASGRTFFKNALGWYRQAPGKERELVASISSRSGTTYYADSVKGRFTISRDNAKNTVYLQMNSLKPEDTAVYYCAASRNRYSYGYWGQGTQVTVSS,high polyreactivity
16,QVQLVESGGGLVQAGGSLRLSCAASGRTFFKYDMGWYRQAPAKERELVAAITWTGGSTYYADSVKGRFTISRDYAKNTVYLQMNSLKPEDTAVYYCAAADYYYVEYDYWGQGTQVTVSS,low polyreactivity
17,QVQLVESGGGLVQAGGSLRLSCAASGRTFFKYVMGWYRQAPGKERELVAAISYRSGSTYYADSVKGRFTISRDNAKNTVYLQMNSLKPEDTAVYYCAKEPPPVKGDYWGQGTQVTVSS,low polyreactivity
18,QVQLVESGGGLVQAGGSLRLSCAASGRTFFLYAMGWYRQAPGKEREFVATISYGGGSTYYADSVKGRFTISRDNAKNTVYLQMNSLKPEDTAVYYCNALNTSQYAEGTSDYDGNMGYWGQGTQVTVSS,low polyreactivity
19,QVQLVESGGGLVQAGGSLRLSCAASGRTFFPYAMGWYRQAPGKERELVAAITRGGSTNYADSVKGRFTISRDNAKNTVYLQINSLKPEDTAVSYCATVVRYSNARGDYWGQGTQVTVSS,low polyreactivity
20,QVQLVESGGGLVQAGGSLRLSCAASGRTFFPYAMGWYRQAPGKERELVATIRYRGGSTSYADSVKGRFTISRDNAKNTVYLQMNSLKPEDTAVYYCAARLQRTPRVYSSYFEYDYWGHGTQVTVSS,low polyreactivity
21,QVQLVESGGGLVQAGGSLRLSCAASGRTFFRNAMGWYRQAPGKERELVAAISSSGGSTYADSVKGRFTISRDNAKNTVYLQMNSLKPEVTAVYYCATRFQYTRTWYSRKYDYWGQGTQVTVSS,high polyreactivity
22,QVQLVESGGGLVQAGGSLRLSCAASGRTFFRYAMGWYRQAPGKERELVASISGGITNYADSVKGRFTISRDNAQNTVYLQMNSLKPEDTAVYYCAADDYPYSYSSQFQYTGYEYWGQGTQVTVSS,low polyreactivity

row,Sequence,polyreactivity (PSR sort gate)
1,QVQLVESGGGLVQAGGSLRLSCAASGRTFFRYVMGWYRQAPGKERELVAAISTRGGSTYYADSVKGRFTISRDNAKNTVYLQMNSLKPEDTAVYYCAARFKVRDYSYNYWGQGTQVTVSS,high polyreactivity
2,QVQLVESGGGLVQAGGSLRLSCAASGRTFFVNAMGWYRQAPGKERELVAGISIGGRTSYADSVKGRFTISRDNAKNTVYLQMNSLKPEDTAVYYCATSYFPWSRKRYGYWGQGTQVTVSS,high polyreactivity
3,QVQLVESGGGLVQAGGSLRLSCAASGRTFFVNAMGWYRQAPGKERELVAVISTSGGSTSYADSVKGRFTISRDNPKYTVYFQMNSLKPEDTAVYYCAALVLGPYVSSFVYQQDDSWGLGTQVTVSS,high polyreactivity
4,QVQLVESGGGLVQAGGSLRLSCAASGRTFFWYAMGWYRQAPGKEREFVADINSRGTSTYADSVKGRFTISRDNAKNTVYLQMNSLKPDDTAVYYCAAYRGHLKRYYYWGQGTQVTVSS,high polyreactivity
5,QVQLVESGGGLVQAGGSLRLSCAASGRTFFWYAMGWYRQAPGKERELVAAISSSTRTKYADSVKGRFTISRDNAKNTVYLQMNSLKPEDTAVYYCNAKGWVWPFPSYYPYDSWGQGTQVTVSS,high polyreactivity
6,QVQLVESGGGLVQAGGSLRLSCAASGRTFFYNAMGWYRQAPGKERELVATITWTGDSTYADSVKGRFTISRDNAKNTVYLQMNSLKPEDTAVYYCAAGKPVILTGDYDYWGQGTQVTVSS,low polyreactivity
7,QVQLVESGGGLVQAGGSLRLSCAASGRTFFYNGMVWYIQAPGKQRELVAAISGSGSRTYYADSVKGRFTISRDNAKNTVYLQMNSLKPEDTAVYYCAATRVISHYRFDYWGQGTEVTVSS,high polyreactivity
8,QVQLVESGGGLVQAGGSLRLSCAASGRTFFYYAMGSYRQAPGKERELVATITKRGGSTYYADSVKGRFTISRDNAKNTVYLQMNSLKPEDTAVYYCNAAGNPVSRYHYDYWGQGTQVTVSS,high polyreactivity
9,QVQLVESGGGLVQAGGSLRLSCAASGRTFGANDMGWYRQAPGKDSELVAAITYSGGRTNYADSVKGRFTISRDNAKNSVYLQMNSLKPEDTAVYYCAAGGWRDRSRYNYWGQGTQVTVSS,high polyreactivity
10,QVQLVESGGGLVQAGGSLRLSCAASGRTFGAYAMGLYRQEPGKETELVAAISKSGGRTYYADSVKGRFTISRDYAKNTVYLLMNSLKPEDTAVYYCNARGFRGEYDYWGEGTQVTVSS,high polyreactivity
11,QVQLVESGGGLVQAGGSLRLSCAASGRTFGAYAMGWYRQAPGKERELVAAISNGGRTYYADSVKGRFTISRDNAKNTVYLQMNSLKPEDTAVYYCNKVRSPWYDSWGQGTQVTVSS,high polyreactivity
12,QVQLVESGGGLVQAGGSLRLSCAASGRTFGAYAMGWYRQAPGKERELVATITVSGGSTYYADSVKGRFTISRDNAMNTVSLQLNSLKPEDTAVYYCATEFYEEYWGQGTQVTVSS,low polyreactivity
13,QVQLVESGGGLVQAGGSLRLSCAASGRTFGDYAMGWYRQAPGKERELVAAISSSGGRTYYADSVKGRFTISRDNAKNTVYLQMNSLKPEDTAVYYCAAQSKYYQYYSWGQGTQVTVSS,high polyreactivity
14,QVQLVESGGGLVQAGGSLRLSCAASGRTFGEYAMGWYRQAPGKERELVADITNGSRTYYADSVKGRFTISRDNAKNTVYLQMNSLKPEDTAVYYCAADWWKEVDYWGQGTQVTVSS,low polyreactivity
15,QVQLVESGGGLVQAGGSLRLSCAASGRTFGEYTMGWYRQAPGKERELVAAISSAGRTNYADSVKGRFTISRDNAKNTVYLQMNSLKPEDTAVYYCAADWTDDVPGYDYWGQGTQVTVSS,low polyreactivity
16,QVQLVESGGGLVQAGGSLRLSCAASGRTFGFNAMGWYRQAPGKDRELVASITRGGRTDYADSVKGRFTISRDNAKNTVYLQMNSLKPEDTAVYYCAAQSGWHHTGGMYYWGQGTQVTVSS,high polyreactivity
17,QVQLVESGGGLVQAGGSLRLSCAASGRTFGFYGMGWYRQAPGKEREFVAAITRRGGSTYYADSVKGRFTISRDNAKNTVYLQMNRLKPEDTAVYYCAAGYSSRYRGGLDYWGQGTQVTVSS,high polyreactivity
18,QVQLVESGGGLVQAGGSLRLSCAASGRTFGFYTMGCYRQAPGKERELVAAISWRGGSTYYADSVKGRFTISRDNAKNTVYLQMYSLKPEDTAVYYCAVRTNFGKMYYWGQGTQVTVSS,high polyreactivity
19,QVQLVESGGGLVQAGGSLRLSCAASGRTFGFYTMGWYRQAPGKERELVAGISRGGSTTYADSVKGRFTISRDNAKNTVYLQMNSLKPEDTAVYYCNADRSHYWLPYGVRFDYWGQGTQVTVSS,low polyreactivity
20,QVQLVESGGGLVQAGGSLRLSCAASGRTFGGNAMGWYRQAPGKERELVAAINSDGGRTYYADSVKARFTISRDNAKNTVYLQMNSLKPEDTAVYYCNRAYRKSYTGYGYDYWGQGTQVTVSS,high polyreactivity
21,QVQLVESGGGLVQAGGSLRLSCAASGRTFGGNAMGWYRQAPGKERQLVASISSSGGRTYYAVSVKGRFTISRDNAKNTVYLQMNSLKPEDTAVYYCAVAWNVRGVGARQRYIYGYWGQGTQVTVSS,high polyreactivity

# Reference: the nanobody polyreactivity screen of Harvey et al. (2022)
